According to the nanobody polyreactivity screen of Harvey et al. (2022):

Assay: yeast display, Sf9 membrane polyspecificity reagent, FACS + sequencing; frameworks hold sequencing errors
How it was run: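 A synthetic nanobody library was expressed on Saccharomyces cerevisiae BJ5465 by galactose induction for 36–48 hours. The library was stained for 1 hour at 4 °C with 10% biotinylated, detergent-solubilized Sf9 membrane reagent and enriched with streptavidin microbeads before FACS. Low and high (top ~1%) gates were set on anti-HA fluorescence for expression and streptavidin fluorescence for reagent binding, and each polyreactivity label reflects the gate of origin.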

Sequence	polyreactivity (PSR sort gate)
QVQLVESGGGIVQAGGSLRLSCAASGLTFRRNAMGWSRQAPGKERELVAAISSGGVRTYYADSVKGRFTISRDNAKNTVYLQMNSLKPEDTAVYYCAKDDLLVVRNVWFDYWGQGTQVTVSS	low polyreactivity
QVQLVESGGGIVQAGGSLRLSCAASGNIFGGYAMGWYRQAPGKERELVAAISQRGGITYYADSVKGRFTISRDNAKNTVYLQMNSLKPEDTAVFYCAKRGPYGWYGAYDYWGQGTQVTVSS	low polyreactivity
QVQLVESGGGIVQAGGSLRLSCAASGRIFATYAMGWYRQAPGKERELVAAIRSDGNTKYADSVKGRFTISRDNAKNTVYLQMNSLKPEDTAVYYCAAYARYAGVLYDYWGQGTQVTVSS	high polyreactivity
QVQLVESGGGIVQAGGSLRLSCAASGRIFAYNAMGWYRQAPGKDRELVAAISSGGNTYYADSVKGRFTISRDNAKNTVYLQMYRLKPEDTAVYYCNAGVGWHRYYSNYDYWGQGTQVTVSS	low polyreactivity
QVQLVESGGGIVQAGGSLRLSCAASGRIFDRYAMGWYRQAPGTERELVAAITGSGGRTYYADSVKGRFTISRDNAKNTVYLQMNSLKPEDTAVYYCARALGQRGYVYWGQGTQVTVSS	high polyreactivity
QVQLVESGGGIVQAGGSLRLSCAASGRIFDWYVMGWYRQAPGKERELVAAINSGVSTKYADSVKGRFTISRDNAKNTVYLQMNSLKPEDTAVYYCAAQSFSDYRRTGRKSSYYYWGQGTLVTVSS	low polyreactivity
QVQLVESGGGIVQAGGSLRLSCAASGRIFGIYAMGWYRQAPGKERELVASITDGTITNYADSVKGRFTISRDNAKYTVYLQMNSLKPEDTAVYYCAAGTQAHAYVVRPIEMDYWGQGTQVTVSS	low polyreactivity
QVQLVESGGGIVQAGGSLRLSCAASGRIFGYYAMGWYIQAPGNERELVASISSSGGSTYYADSVKGRFTISRDNAKNTVYLQMKSLKPEDTAVYYCNTASNRYQGWRAEFDYWGQGSQVTVSS	low polyreactivity
QVQLVESGGGIVQAGGSLRLSCAASGRIFRGYGMGWYRQAPGKERELVAAITSRGGSTYYADSVKGRFTISRDNAKNTVYLQMNSLKPEDTAVYYCAAVGVGYPGHKYYYWGQGTQVTVSS	high polyreactivity
QVQLVESGGGIVQAGGSLRLSCAASGRIFRSYTMGWYRQAPGKERELVAAISWTGGRTYYADSVKGRFTISRDNAKNTVYLQMNSLKPEDTAVYYCAATNRYYIYDYWGQGTQVTVSS	high polyreactivity
QVQLVESGGGIVQAGGSLRLSCAASGRIFSKNTMGRYRKAPGKERELVAAIRSRAGSTYYADSVKGRFTISRDNAKNTVYLQMNSLIPEDTAVYYCAVPWFRSVDFDYWGQGTQVTVSS	low polyreactivity
QVQLVESGGGIVQAGGSLRLSCAASGRIFVGYAMVWYRQAPGKERELVAAISRGGSTNYADSVKGRFTISRDNAKNTVYLQMNSLKPEDTAVYYCAKTYRTRWWGNGGDFWGQGTQVTVSS	high polyreactivity
QVQLVESGGGIVQAGGSLRLSCAASGRIISGYVMGWYRQAPGKERELVAAITRSGGSTNYADSVKGRFTISRDNAKNTVYLQMNSLKPEDTAVYYCNAVGRYYRVANGNYDYWGQGTQVTVSS	high polyreactivity
QVQLVESGGGIVQAGGSLRLSCAASGRIIYNYGLGWYRQAPGKERELVARITTGGRTNYADSVKGRFTISRDNAKNTVYVQMNSLKPEDTAVYFCNAVGYHSRWYYYNYDYWGQGTQVTVSS	low polyreactivity
QVQLVESGGGIVQAGGSLRLSCAASGRILVSNTMGWYRQAPGKERELVAGIRRGGSTDYADSVKGRFTISRDNAKNTVYLQMNSLKPEDTAVYYCNARYSNGYTKLGYWGQGTQVTVSS	low polyreactivity
QVQLVESGGGIVQAGGSLRLSCAASGRNFVRNAMGWYRQAPGKERELVAAISGGGGNTYYADSVKGRFTISRDNAKNTVYLQMYSLKPEDTAVYYCNALAYGYWYRYYYWGLGTQVTVSS	high polyreactivity

Sequence	polyreactivity (PSR sort gate)
QVQLVESGGGIVQAGGSLRLSCAASGRTFLYNAMGWYRQAPGKERELVAAISKSGGSTYYADSVKGRFTISRDNAKNTVYLLMNSLKPEESAVYYCAKVGGYRGRPSFGDWGQGTQVTVSS	high polyreactivity
QVQLVESGGGIVQAGGSLRLSCAASGRTFMLYAMGWYRQAPGKERELVASIDRNGGRTYYADSVKGRFTISRDNAKNTVYLQMNSLIPEDTAVYYCAARWYDYGYWGQGTQVTGSS	high polyreactivity
QVQLVESGGGIVQAGGSLRLSCAASGRTFVVNDMGWYRQAPGKERELVAAINYNAGSTFYADSVKGRFTISRDNAKNTVYLQMNSLKPEDTAVYYCATVVYGYVEYDYWGQGTEVTVSS	low polyreactivity
QVQLVESGGGIVQAGGSLRLSCAASGSIFDNAMGWYRQAPGKERELVAAITSGGITNYADSVKGRFTISRDNAKNTVYLQMNSLKPEDTAVYYCNTLSPTQTKYDYWGQGTKVTVSS	low polyreactivity
QVQLVESGGGIVQAGGSLRLSCAASGSIFDSYTMGWYRQAPGKERELVATINRSGGSTYYADSVKGRFTISRDTAKNTVYLQMNSLKPEDTAVYYCATVYPYTPYSSWRSKYDYWGQGTQVTVSS	low polyreactivity
QVQLVESGGGIVQAGGSLRLSCAASGSIFGFYALGWYRQAPGKERELVAAISNSAGSTFYADSVKGRFTISRDNAKNTVYLQMNSLKPEDTAVYYCAAEGEFSDWQHQYVVYWYDYWGQGTQVTVSS	high polyreactivity
QVQLVESGGGIVQAGGSLRLSCAASGSIFRRYATGWYRQAPGKERELVAAISSGGSTYADSVKGRFTISRDNAKNTVYLQMNSLKPEDTAVYYCAVDWAQEDGYWGQGTQVTVSS	low polyreactivity
QVQLVESGGGIVQAGGSLRLSCAASGSIFRYNVMGLYRQAPGKERELVAGITRIGGSTYYADSVKGRFTISRDNAKNTVYLQMNSLKQEDTAVYYCGTARFSYPGPFGWLDEYYYWGQGTQVTVSS	low polyreactivity
QVQLVESGGGIVQAGGSLRLSCAASGSIFSGNAMGWYRQAPGKERELVAAIDRGGSTYYADSVKGRFTISRDNAKNTVYLQMNRLKPEDTAVYYCAKEYIVYNWAFYYWGQGTQVTVSS	low polyreactivity
QVQLVESGGGIVQAGGSLRLSCAASGSIFTRYAMGWYRPAPGKERELVAAITKSGSRTYYADSVKGRFTISRDNAKNTVYLQLNCLIAEDTAVFYCATLQGDSSSQYDYWGQGTQVTVSS	high polyreactivity
QVQLVESGGGIVQAGGSLRLSCAASGSIFTVNALGWYRQAPGKERELVAAITFGGGRTYYADSVKGRFTISRDNAKNTVYLQMNSLKPEDTAVYYCAVSRKGLGSVEYWGQGTQVTVSS	low polyreactivity
QVQLVESGGGIVQAGGSLRLSCAASGSILDPNAMGTYRQAPGKEREFVASISASGGSTYYADSVKGRFSISRDIAKNTVYLQLNSLKPEDTAVYYCATLQGDSSSQYDYWGQGTQVTVSS	high polyreactivity
QVQLVESGGGIVQAGGSLRLSCAASGSTFDRYAMGWYRQAPGKERALVAAISWSGGSTYYADSVKGRFTISRDNAKNTVFLQMNSLKPEDTAVYYCNTASYYRRFHKYDYWGQGTQVTVSS	high polyreactivity
QVQLVESGGGIVQAGGSLRLSCAASGSTFKSYAMGWYRQAPGKERELVAAITHRGSTYYADSVKGSFTISRDNAKNTVYLQMKSLKPEDTAVYYCNVRRICNGRRVDYWGQGTQVTVSS	high polyreactivity
QVQLVESGGGIVQAGGSLRLSCAASGSTFSKYAMGWYRQAPGNERELVAAISSRGGSTYYADSVKGRFTISRDNAKNTVYLQMNCLKPEDTAVYYCAAKFYAEYGYWGHGTQVTVSS	high polyreactivity
QVQLVESGGGIVQAGGSLRLSCAASGSTFYKYAMGWYRQAPGKERELVASISRSGGSTSYADSVKGRFTISRDNAKNTVYLQMNSLKPEDTAVYYCAARSLSWTPYYYWGQGTQVTVSS	high polyreactivity
